Experimental findings from publication PMC7909649, “Eukaryotic translation initiation factor 5A and its posttranslational modifications play an important role in proliferation and potentially in differentiation of the human enteric protozoan parasite Entamoeba histolytica” (PLoS Pathogens, 2021) are described below.

The test has as its target T1, Entamoeba histolytica deoxyhypusine synthase 1 (EhDHS1) with amino-terminal His-tag, co-expressed with EhDHS2 (Entamoeba histolytica, UniProt C4LXB8 1-331).
T1 construct: Deoxyhypusine synthase isotype 1 (EhDHS1) of Entamoeba histolytica, EHI_098350, XP_653614; the catalytically active isotype; also called His-tag DHS1; EHI_098350; source: E. coli BL21 (DE3), co-expressed with EhDHS2 from pETDuet-EhDHS1/2; in lysate and copurified on Ni2+-NTA; not shown: His tag, N-terminal, kept
T1 sequence (looked up): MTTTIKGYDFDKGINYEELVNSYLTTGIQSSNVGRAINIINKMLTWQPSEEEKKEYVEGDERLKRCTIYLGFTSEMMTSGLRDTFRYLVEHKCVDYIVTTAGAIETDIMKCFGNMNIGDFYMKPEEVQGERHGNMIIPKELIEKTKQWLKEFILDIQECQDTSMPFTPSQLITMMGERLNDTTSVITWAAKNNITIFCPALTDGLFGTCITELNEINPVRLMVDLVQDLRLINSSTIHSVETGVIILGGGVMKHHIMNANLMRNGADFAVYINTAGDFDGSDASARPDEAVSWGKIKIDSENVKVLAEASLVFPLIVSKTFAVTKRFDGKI
The experiment in a line: pull-down; Co-expression of His-EhDHS1 and EhDHS2-S-tag in E. coli BL21 (DE3); lysate (50 mM Tris-HCl pH 8.0, 300 mM NaCl, 10 mM imidazole, 0.1% Triton X-100) on Ni2+-NTA resin, 1 hr at 4°C; washed with 10-50 mM imidazole, eluted with 100-300 mM imidazole; immunoblot with anti-His and anti-S tag antibodies. To be noted: partners not purified. For orientation: Immunoblotting shows a protein as a band on a membrane.

B1: Entamoeba histolytica deoxyhypusine synthase 2 (EhDHS2) with carboxyl-terminal S-tag, co-expressed with EhDHS1 (natural protein, UniProt C4M2N7 1-336, looked up)
chain: MSITGEEFAKVTSKVLGESKEYKGEKCIGYDFDNGVDFNKVMEKMKYTGFQALNLGLCIEQVNEMRKNHAKIFLGMSSNIVSSGLREVIHYLVKNKFVDAIVVTAGGIEEDFIKTMHPTLLGDFYFKGKELYPNGYNRIGNLILPNSNYCEFEDWMDPLLLECLKEQNEHGVHWTPSKLVHKMGESINNESSIYYWAAKNNIPVFSPAITDGSIGDMIFFFSYKNEGLVLDLVQDVIKIDEMAFNAEKVGCLLVGAGIAKHHILNAMKRRGGCDYCAMLSTSIECDASDAGSEIAADRTKGFFKPECNPAKVIGDATILLPLIVASTFAQKEEPTK
notes: Deoxyhypusine synthase isotype 2 (EhDHS2) of Entamoeba histolytica, EHI_006030, XP_653426; stop codon removed to fuse the C-terminal S-tag of pETDuet; also called S-tag DHS2; EHI_006030; source: E. coli BL21 (DE3), co-expressed with EhDHS1 from pETDuet-EhDHS1/2; in lysate and copurified on Ni2+-NTA; not shown: S-tag, C-terminal, kept
Consider B1, for which the “stoichiometry N” value is 1 EhDHS1:EhDHS2.
